Key:
[1] = target: hMOR-1B2 (human) (UniProt P35372); experiment: competition against [3H]DAMGO (~1 nM), membranes of stable CHO transfectants
[2] = target: rMOR-1 (rat) (UniProt P33535); experiment: cell-based or functional assay
[3] = target: rMOR-1A (rat); experiment: cell-based or functional assay
[4] = target: rMOR-1D (rat); experiment: cell-based or functional assay
[5] = target: rMOR-1 (no Exon 4) (rat) (UniProt P33535); experiment: cell-based or functional assay
[6] = target: rMOR-1C1 (rat); experiment: cell-based or functional assay
[7] = target: rMOR-1 (rat) (UniProt P33535); experiment: competition against [3H]DAMGO (~1 nM), membranes of stable CHO transfectants
[8] = target: rMOR-1A (rat); experiment: as above
[9] = target: hMOR-1B1 (human) (UniProt P35372); experiment: as above
[10] = target: rMOR-1D (rat); experiment: as above
[11] = target: hMOR-1 (human) (UniProt P35372); experiment: as above
[12] = target: rMOR-1C1 (rat); experiment: as above
[13] = target: hMOR-1A (human); experiment: cell-based or functional assay
[14] = target: hMOR-1Y (human) (UniProt P35372); experiment: cell-based or functional assay
[15] = target: hMOR-1B2 (human) (UniProt P35372); experiment: cell-based or functional assay
[16] = target: hMOR-1B1 (human) (UniProt P35372); experiment: cell-based or functional assay
[17] = target: hMOR-1 (exons 1-3) (human) (UniProt P35372); experiment: cell-based or functional assay
[18] = target: hMOR-1 (human) (UniProt P35372); experiment: cell-based or functional assay
[19] = target: hMOR-1B4 (human) (UniProt P35372); experiment: cell-based or functional assay
[20] = target: hMOR-1B3 (human) (UniProt P35372); experiment: cell-based or functional assay
[21] = target: hMOR-1B5 (human) (UniProt P35372); experiment: cell-based or functional assay
[22] = target: rMOR-1 (rat) (UniProt P33535); experiment: [3H]DAMGO saturation binding, membranes of stable CHO transfectants
[23] = target: rMOR-1A (rat); experiment: as above
[24] = target: rMOR-1D (rat); experiment: as above
[25] = target: rMOR-1 (no Exon 4) (rat) (UniProt P33535); experiment: as above
[26] = target: rMOR-1C1 (rat); experiment: as above
[27] = target: hMOR-1A (human); experiment: competition against [3H]DAMGO (~1 nM), membranes of stable CHO transfectants
[28] = target: hMOR-1Y (human) (UniProt P35372); experiment: as above
[29] = target: hMOR-1 (exons 1-3) (human) (UniProt P35372); experiment: as above
[30] = target: hMOR-1B4 (human) (UniProt P35372); experiment: as above
[31] = target: hMOR-1B3 (human) (UniProt P35372); experiment: as above
[32] = target: hMOR-1B5 (human) (UniProt P35372); experiment: as above
[33] = target: rMOR-1 (no Exon 4) (rat) (UniProt P33535); experiment: as above

Row | Substance | Ki [1] [nM] | Max Stim (%) [2] [%] | Max Stim (%) [3] [%] | EC50 (nM), stimulation of [35S]GTPγS binding [4] [nM] | Max Stim (%) [4] [%] | Max Stim (%) [5] [%] | Max Stim (%) [6] [%] | Ki [7] [nM] | Ki [8] [nM] | Ki [9] [nM] | Ki [10] [nM] | Ki [11] [nM] | Ki [12] [nM] | EC50 (nM), stimulation of [35S]GTPγS binding [2] [nM] | EC50 (nM), stimulation of [35S]GTPγS binding [3] [nM] | EC50 (nM), stimulation of [35S]GTPγS binding [5] [nM] | EC50 (nM), stimulation of [35S]GTPγS binding [6] [nM] | Ki [27] [nM] | Ki [28] [nM] | Ki [30] [nM] | other results
1 | DADLE (peptide) | 10 | – | – | – | – | – | – | – | – | – | – | – | – | – | – | – | – | – | – | – | –
2 | Endomorphin 1 (peptide) | – | 320 | 205 | 100 | 145 | 189 | 377 | – | – | – | – | – | – | – | – | – | – | – | – | – | –
3 | Endomorphin 2 (peptide) | – | – | – | – | – | – | – | 8 | – | – | – | – | – | – | – | – | – | – | – | – | –
4 | [D-Ala^2,MePhe^4,Gly(ol)^5]enkephalin (DAMGO) (peptide) | – | 233 | 176 | 125 | 113 | 196 | 233 | 3.3 | 6 | 1.2 | 4.7 | 2 | 4.5 | 12 | 13 | 86 | 4 | – | – | – | Max Inhib (%) [13]: 82%; Max Inhib (%) [14]: 91%; Max Inhib (%) [15]: 90%; Max Inhib (%) [16]: 57%; Max Inhib (%) [17]: 74%; Max Inhib (%) [18]: 76%; Max Inhib (%) [19]: 65%; Max Inhib (%) [20]: 73%; Max Inhib (%) [21]: 83%; Kd [22]: 2.8 nM; Kd [23]: 2.5 nM; Kd [24]: 4.7 nM; Kd [25]: 4.5 nM; Kd [26]: 4.8 nM
5 | [D-Pen^2, D-Pen^5]enkephalin (DPDPE) (peptide) | > 500 | – | – | – | – | – | – | – | – | > 500 | – | > 500 | – | – | – | – | – | > 500 | > 500 | > 500 | Ki [29]: > 500 nM; Ki [31]: > 500 nM; Ki [32]: > 500 nM
6 | [D-Ser^2, Leu^5]enkephalin-Thr^6 (DSLET) (peptide) | 34.4 | 251 | 206 | 540 | 187 | 226 | 312 | 30.9 | 44.5 | 13.9 | 27.3 | 19.1 | 45 | 76 | 127 | 690 | 253 | 19.7 | 15.4 | 22.3 | Ki [33]: 24.2 nM; Ki [31]: 16.4 nM

— patent US20070258988A1
